Source: patent US11814447B2, “Peptide ligands for binding to EphA2” (BICYCLERD LIMITED, priority 2018, dated 2023)
Starred links: 1 amine or outer side, 2 acyl side, 3 side chain; linkers in the order of their positions; H or OH if unused. Positions of bridges follow the written chain, without caps; N, C: chain ends. Non-standard residues stand in square brackets, D forms with d. No end group written: not given here. 1Nal = N[C@@H](Cc1cccc2ccccc12)C(=O)O; TBMB = c1c(C[*:1])cc(C[*:3])cc1C[*:2]; hArg = N=C(N)NCCCC[C@H](N)C(=O)O; Tle = CC(C)(C)[C@H](N)C(=O)O; Aib = CC(C)(N)C(=O)O; βAla = NCCC(=O)O; Sar = CNCC(=O)O

What was measured:
[1] = biological target: Human EphA2 (Ecto) (Human) (UniProt P29317); test: FP competition, tracer Compound 18
[2] = biological target: T1, Human EphA2 (Ecto), C-terminal polyHis (Human, UniProt P29317 24-537); test: fluorescence polarisation competition; competitor fluorescent Compound 18
T1 construct: extracellular domain; also called EPH receptor A2; ephrin type-A receptor 2
Method: (§1) Peptides without a fluorescent tag were tested in competition with a peptide with a fluorescent tag and a known Kd (Table 2). Peptides were diluted to an appropriate concentration in assay buffer as described in the direct binding assay with a maximum of 5% DMSO, then serially diluted 1 in 2. […] Measurements were conducted as for the direct binding assay, however the gain was determined prior to the first measurement. Data analysis was in Systat Sigmaplot version 12.0 where the mP values were fit to a user defined cubic equation to generate a Ki value: […]

[3] = biological target: T1, Human EphA2 (Ecto), C-terminal polyHis; test: fluorescence polarisation competition; competitor fluorescent Compound 66
Method: as §1

T1 sequence (P29317 24-537): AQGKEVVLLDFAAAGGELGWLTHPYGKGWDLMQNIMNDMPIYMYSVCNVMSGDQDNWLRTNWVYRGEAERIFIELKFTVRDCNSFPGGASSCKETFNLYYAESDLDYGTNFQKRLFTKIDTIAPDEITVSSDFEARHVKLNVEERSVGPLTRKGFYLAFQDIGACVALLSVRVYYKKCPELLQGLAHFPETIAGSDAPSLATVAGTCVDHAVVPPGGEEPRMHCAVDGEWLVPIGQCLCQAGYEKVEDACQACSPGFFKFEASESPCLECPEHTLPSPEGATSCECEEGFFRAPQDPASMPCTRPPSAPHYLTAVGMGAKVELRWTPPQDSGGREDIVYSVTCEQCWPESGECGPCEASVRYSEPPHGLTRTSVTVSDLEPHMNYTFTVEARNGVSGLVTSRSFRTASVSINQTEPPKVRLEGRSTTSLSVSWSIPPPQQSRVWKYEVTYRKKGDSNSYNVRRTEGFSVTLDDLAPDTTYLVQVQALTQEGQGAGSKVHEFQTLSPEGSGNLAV
Human EphA2 (Ecto) (Human), sequence (P29317 24-537): as above

Binder	Ki [1] [nM]	Ki [2] [nM]	Ki [3] [nM]
Ac-[Sar][Sar]A[dD]VTCP[1Nal]G[Aib]F[1Nal]CP[Tle]N[hArg]PGC (linker 7-14-21 via TBMB) [Bicycle Compound 182]	1.16		
[βAla][Sar][Sar][Sar][Sar][Sar][Sar][Sar][Sar][Sar][Sar]H[dD]VPC[Aib]WGP[hArg]WCP[Tle]N[hArg]P[dD]C (linker 16-23-30 via TBMB) [Bicycle Compound 246]	31.4		
Ac-[Sar][Sar]A[dD]VTCP[1Nal]G[Aib]F[1Nal]CP[Tle]NR[Aib]GC (linker 7-14-21 via TBMB) [Bicycle Compound 183]	1.02		
[Sar][Sar]AC[Aib][1Nal]GPFWCPVNRPGC (linker 4-11-18 via TBMB) [Bicycle Compound Number 113 (TBMB scaffold)]		10	6.6
[βAla][Sar][Sar][Sar][Sar][Sar][Sar][Sar][Sar][Sar][Sar]H[dD]VPC[Aib][1Nal]GP[hArg][1Nal]CP[Tle]NR[Aib]GC (linker 16-23-30 via TBMB) [Bicycle Compound 243]	2.83		
[Sar][Sar]ACP[1Nal]GPFWCPVN[hArg]PGC (linker 4-11-18 via TBMB, also called Compound 122) [Bicycle Compound Number 122 (TBMB scaffold)]		9.55	8
Ac-[Sar][Sar]A[dH]DVPCP[1Nal]G[Aib]F[1Nal]CP[Tle]N[hArg]PGC (linker 8-15-22 via TBMB) [Bicycle Compound 231]	1.93		
[βAla][Sar][Sar][Sar][Sar][Sar][Sar][Sar][Sar][Sar][Sar]H[dD]VPCP[1Nal]G[Aib][hArg][1Nal]CP[Tle]NR[Aib]GC (linker 16-23-30 via TBMB) [Bicycle Compound 249]	1.38		
[βAla][Sar][Sar][Sar][Sar][Sar][Sar][Sar][Sar][Sar][Sar]H[dD]VPC[Aib][1Nal]G[Aib]F[1Nal]CP[Tle]NRPGC (linker 16-23-30 via TBMB) [Bicycle Compound 234]	3.94		
[βAla][Sar][Sar][Sar][Sar][Sar][Sar][Sar][Sar][Sar][Sar]H[dD]VPC[dA][1Nal]G[Aib]F[1Nal]CP[Tle]N[hArg]P[dD]C (linker 16-23-30 via TBMB) [Bicycle Compound 248]	28.4		
[Sar][Sar]ACP[1Nal]GPFWCP[Tle]NRPGC (linker 4-11-18 via TBMB, also called Sar2-ACP(1Nal)GPFWCP(tBuGly)NRPGC) [Bicycle Compound Number 121 (TBMB scaffold)]		3.65	2
[βAla][Sar][Sar][Sar][Sar][Sar][Sar][Sar][Sar][Sar][Sar]H[dD]VPC[Aib][1Nal]G[Aib]F[1Nal]CP[Tle]N[hArg][Aib][dD]C (linker 16-23-30 via TBMB) [Bicycle Compound 238]	2.83		
[βAla][Sar][Sar][Sar][Sar][Sar][Sar][Sar][Sar][Sar][Sar]H[dD]VPC[Aib]WGP[hArg]WCP[Tle]N[hArg]P[dD]C (linker 16-23-30 via TBMB) [Bicycle Compound 247]	29.7		
[βAla][Sar][Sar][Sar][Sar][Sar][Sar][Sar][Sar][Sar][Sar]H[dD]VPC[Aib][1Nal]G[Aib]F[1Nal]CP[Tle]N[hArg]PGC (linker 16-23-30 via TBMB) [Bicycle Compound 235]	2.58		
[βAla][Sar][Sar][Sar][Sar][Sar][Sar][Sar][Sar][Sar][Sar]H[dD]VPC[Aib][1Nal]GP[hArg][1Nal]CP[Tle]N[hArg]P[dD]C (linker 16-23-30 via TBMB) [Bicycle Compound 244]	2.8		
Ac-[Sar][Sar]A[dH]DVPCP[1Nal]G[Aib]F[1Nal]CP[Tle]NR[Aib]GC (linker 8-15-22 via TBMB) [Bicycle Compound 232]	0.9		
[βAla][Sar][Sar][Sar][Sar][Sar][Sar][Sar][Sar][Sar][Sar]H[dD]VPC[Aib][1Nal]G[Aib]FWCP[Tle]N[hArg]P[dD]C (linker 16-23-30 via TBMB) [Bicycle Compound 242]	7.77		
[βAla][Sar][Sar][Sar][Sar][Sar][Sar][Sar][Sar][Sar][Sar]H[dD]VPC[Aib][1Nal]G[Aib]F[1Nal]CP[Tle]NR[Aib]GC (linker 16-23-30 via TBMB) [Bicycle Compound 239]	4.91		
Ac-[Sar][Sar]A[dD]VTCP[1Nal]G[Aib]F[1Nal]CP[Tle]N[hArg]P[dD]C (linker 7-14-21 via TBMB) [Bicycle Compound 184]	1.19		

The remaining lines, values ahead:

Ki [1] [nM]	Ki [2] [nM]	Ki [3] [nM]	Binder
	75	140	[Sar][Sar]ACPWGPFWCPVNR[Aib]GC (linker 4-11-18 via TBMB, also called Compound 110) [Bicycle Compound Number 110 (TBMB scaffold)]
1.48			[βAla][Sar][Sar][Sar][Sar][Sar][Sar][Sar][Sar][Sar][Sar]H[dD]VPCP[1Nal]G[Aib][hArg][1Nal]CP[Tle]NR[Aib][dD]C (linker 16-23-30 via TBMB) [Bicycle Compound 250]
	6.4	0.61	[Sar][Sar]AC[Aib][1Nal]GPFWCPVNRP[dA]C (linker 4-11-18 via TBMB) [Bicycle Compound Number 125 (TBMB scaffold)]
	40	33	[Sar][Sar]ACP[1Nal]G[Aib]FWCPV[dA]RPGC (linker 4-11-18 via TBMB, also called Sar2-ACP(1Nal)G(Aib)FWCPV(D-Ala)RPGC) [Bicycle Compound Number 127 (TBMB scaffold)]
	15	16	[Sar][Sar]ACP[1Nal]G[Aib]FWCPVNRP[dA]C (linker 4-11-18 via TBMB) [Bicycle Compound Number 128 (TBMB scaffold)]
	14	3.7	[Sar][Sar]ACP[1Nal]GPFWCPV[dA][hArg]PGC (linker 4-11-18 via TBMB, also called Sar2-ACP(1Nal)GPFWCPV(D-Ala)(HArg)PGC) [Bicycle Compound Number 133 (TBMB scaffold)]
	1.2	6.15	[Sar][Sar]ACP[1Nal]GPFWCPVN[hArg]P[dA]C (linker 4-11-18 via TBMB) [Bicycle Compound Number 134 (TBMB scaffold)]
	0.48	1.2	ADVHCPWGPFWCPVNRPGCA (linker 5-12-19 via TBMB (inferred), also called Compound 57) [Bicycle Compound Number 57 (TBMB scaffold)]
	1.4	0.98	[Sar][Sar]ACP[1Nal]GPF[1Nal]CPVNRPGC (linker 4-11-18 via TBMB, also called Compound 120) [Bicycle Compound Number 120 (TBMB scaffold)]
	7.7	8.7	[Sar][Sar]ACP[1Nal]GPFWCP[Tle]NRP[dA]C (linker 4-11-18 via TBMB, also called Sar2-ACP(1Nal)GPFWCP(tBuGly)NRP(D-Ala)C) [Bicycle Compound Number 132 (TBMB scaffold)]
	23	15	[Sar][Sar]ACP[1Nal]GPFWCP[Tle][dA]RPGC (linker 4-11-18 via TBMB, also called Sar2-ACP(1Nal)GPFWCP(tBuGly)(D-Ala)RPGC) [Bicycle Compound Number 129 (TBMB scaffold)]
	11	6.8	[Sar][Sar]ACP[1Nal]GPFWCP[Tle]NR[Aib]GC (linker 4-11-18 via TBMB, also called Sar2-ACP(1Nal)GPFWCP(tBuGly)NR(Aib)GC) [Bicycle Compound Number 131 (TBMB scaffold)]
1.93			[βAla][Sar][Sar][Sar][Sar][Sar][Sar][Sar][Sar][Sar][Sar]H[dD]VPCP[1Nal]G[Aib][hArg][1Nal]CP[Tle]N[hArg]P[dD]C (linker 16-23-30 via TBMB) [Bicycle Compound 251]
	63	46	[Sar][Sar]ACPWG[Aib]F[1Nal]CPVNRPGC (linker 4-11-18 via TBMB) [Bicycle Compound Number 123 (TBMB scaffold)]
	15	19	[Sar][Sar]ACP[1Nal]G[Aib]FWCP[Tle]NRPGC (linker 4-11-18 via TBMB, also called Sar2-ACP(1Nal)G(Aib)FWCP(tBuGly)NRPGC) [Bicycle Compound Number 126 (TBMB scaffold)]
	12.5	1.64	[Sar][Sar]ACP[1Nal]GPFWCPV[dA]RPGC (linker 4-11-18 via TBMB, also called Sar2-ACP(1Nal)GPFWCPV(D-Ala)RPGC) [Bicycle Compound Number 115 (TBMB scaffold)]
	2.95	3.2	[Sar][Sar]ACP[1Nal]GPFWCPVNRP[dA]C (linker 4-11-18 via TBMB) [Bicycle Compound Number 116 (TBMB scaffold)]
	11.3	6.15	AEGLPCPWGPFWCPVNRPGCA (linker 6-13-20 via TBMB (inferred), also called Compound 55) [Bicycle Compound Number 55 (TBMB scaffold)]
